Results as given in the DeepSol protein solubility set.

Experiment: soluble on expression in E. coli; label from the status in PepcDB or PDB records

| Sequence | soluble on expression in E. coli |
| --- | --- |
| MGSDKIHHHHHHMEPAGVYAKNVQIDRELSQRLHGALTCGKEELFQVVADPAPDVIRAALRNPAMDENHLLVLLGRRDLGEDLVAAIGRHDAVAESHKLKAALVRNPATPAQLVMSLLPHLYLFELVDLCLLAGVTPDQRVAAERAVIQRLSTTPLGNKITLARRATASILDALLKESDVRVVESCLTNPRLKEGSVFQLVSSSRATGDVIAAVARHQCWSNRPNLKAAMLKNPNTPTSLFSTLLASAPTMEVRNLAASGRLGTERKRLAAQELKRRGC | not soluble |
| MGSDKIHHHHHHMERKTDSIDLAPLFHPDTIRLSRLAERLDDGPYHGGRIDPLALVITQREEATGQAGIDRYPMLQLAVGRAGMQVGQVDLGQLHPPVRSYLECRFHILKIVNLRHISIISRRNNSPEITLSHPKRQSPHALPYLCINIKKQHIMIRYKKYQNKNEKNVTTFNKWYARAVCEETVDIAALAEHMSTHNTPFSTGAIHGMLKDMVNCIKELLMDGKNVKIDDLGIFSVGIRSKGAVTPEDFSTQGNIIGVRLRARATGNLSSASLKLTAKLREYTEYSNGEVTPGGGGGDSESPDEI | not soluble |
| MGSDKIHHHHHHMERLFESFIKKLAITNTSFVRSLMNEIEWEARLIGIKGARGVGKTTLLLQYIKLNLPMDKTVLYASVDNIWFSEHKLYDLASDFVKRGGKYLFLDEVHKYPNWSQELKNIYDDLPELHVVFTGSSLLEILNAKSDLSRRAIVYEMQGFSFREYLNWNEKLSLPILTLNNILDNHLALSVGIVDKVKVLKHFSDYLKHGYYPYYNELPSLYYSRINEVVNLIVELEIPQLRGVDISYTTKIKQLLYIIAESAPFIPNVSKLSERIGISRNSLLAYLDALHDSCLTMNLQKEGSGISRLQKPDKLFLENPNLMYALSASQIDIGNVRETFFANQLRYCHKINVSKESDFFIDGRYTFEVGGRHKGKQQINGLSDAYIVADDIEYGINNKIPLWLFGFLY | not soluble |
| MGSDKIHHHHHHMESFYRTHAYLVEHTNAPVRRDLMDEIDWSDRLIGIKGTRGVGKTTFLLQYAKEKFGTDRSCLFINMNNFYFSGHSLVDFANEFQKRGGKVLLIDQVFKHPEWSKELRMCYDRFPSLKIVFTGSSVMRLKEENLELRDIAKSYNLRGFSFREFLNLQTGMKFRAYSLEEILSTHEQIAKGVLSKVRPLDYFQDYLHHGFYPFFLEKRNFSENLLKTMNMMVEVDILLIKQIELKYLSKIKKLLYLLAVDGPKAPNVSQLASDVQTSRATVMNYIKYLADARLINLVYPKGEEFPKKPSKIMMHNSNLMYSIYPVKVEEQDVLDTFFVNTLWKDHKVHKGDKNVSFMVDEVMPFKICAEGTKIKNNPDVTYALQKAEIGRGNQIPLWMFGFLY | not soluble |
| MGSDKIHHHHHHMESMLKKICQDPVLQKDKDFLLFLTSDDFSSESKKRAFLTGSGAINDSNDLSEVRISEIQLLGAEDAAEVLKNGGIDAESHKGFMSISFSSLPKYNEADEFFIEKKQKIDELEDNLKKLSKSLEMVDTSRNTLAASTEEFSSMVETLASLNVSEPNSELLNNFADVHKSIKSSLERSSLQETLTMGVMLDDYIRSLASVKAIFNQRSKLGYFLVVIENDMNKKHSQLGKLGQNIHSEKFREMRKEFQTLERRYNLTKKQWQAVGDKIKDEFQGFSTDKIREFRNGMEISLEAAIESQKECIELWETFYQTNL | not soluble |
| MGSDKIHHHHHHMETCRQEVTMDKVFIISQKAEQQADAIETGIALARVLEKEAEVFAYSYESFAGKEYYNPRLGAAAKVALMNQRSEEIAAKLKALKAEDVAVHSVWTKDLFEHACHHSIRHGFDLMVKAVHHKTHYLPMDWQLIRHVRIPLMMLCDNPLQRARSVLMAVDLGSDNPIKQKLNQCVIQQGRQLAEAMDCQLHLAYIIRVPKILRDMDLIDTRTLVKDAYHRYQPQLDEIDLHQEHVHFLAGDPDLCLYELSCRLKAAYLVMGARQRKGLMGMVIGNTAEAMLTRIRSNVLIIPADDQLLPA | not soluble |
| MGSDKIHHHHHHMETIERHFRCNEGSAADYAAQLREVGTVMLPAYVAFDAHELAHIDALQARLPEEPVTAGDAGDTHDIYVRRIMVDRAGERPQLVNRPHSEPILALLTDARRTRFFGDMFGANAEYFIRRCQINRMLKDSFIGLHLDAASNPDYEFSVVIQLGREFDGGEFVVHPEGRLPNVFAPTYGTVIVTSCMHRHEVRSVRANERTSLVYFYARHNGVNRRAN | not soluble |
| MGSDKIHHHHHHMETVYFKTLLAVVETGSFSRAAERLCITQSAVSQRIKLLEGRYGYTLIDRAGNFLVPTAAGELVIQKARVIIEHELALLGALKLLPAKTVISFCCSPCFGTVFLPALVRDFVLRNSEQIDFRCVLGSSQGAVRGLRDTDFNIIVIEHCTPLDLSPYDVISLPNDEIIFVSNPATGLDVPEPDLSQLLNLPVIMRKEGCSGTEQLAANLARFGKVLEDFRSVTGLDDPRLIVQTVKTEPYLAFVPKSLVLKELAEGSLRAHTVKGFSHARFRSLVTAPKRYSDPCRSNFIKAVMETVCHISAVSMPGDGPGSRWHKKRPSGRRAPLNSAVTNNAAI | not soluble |
| MGSDKIHHHHHHMEYEQLLQSELGELEIIREELQNKEYRGMIVKTAKDGTTIRTRLAKKTDKKTGYFVAFWEKDELGKNCPFDENDSADFLCIVVIDGDLNGLFVFPRQCLIEKGILTSEVGIGKMAARFYPSWCQDLNKTAEKTQAWQQVYFKNYSIRKEDH | not soluble |
| MGSDKIHHHHHHMEYTSLIFPGDKIDIFASGLSDNSTSYKSSFSDKLTDSMWEITMPVDSGRVVLFQLGTQFDFIIYTQNKTILKSSAIVRQRYRKENMYFLAIELINNLEKIQRRQFFRLPCTIDMDFYEVRYDDKAESELEFCKKMYKNHAINSKNMNTVKSVILDISGGGIRFSLSTPLEEGTYFMAQFSLALEECTQQFNIVCKVINCTQSLDYADRYFARSKFIFDRMTEREKIVRFVFEEERRIRRREME | not soluble |
| MGSDKIHHHHHHMFAKFVQRHGAARKAADKTIRAQAGALYAALKDPPGPPHAPASAEHREHQEQDAKEQTMYNDSKHGFDVAQTEYEAFMLEPHDWVPNNRKLPVVIYRRALMPASGDLAAAFEILFERNAWPPQWRDGIFDYHHFHATAHEILGVTDGSAQVIVGGPGGRVVTLCAGDALLLPAGTGHCLQSFARHFQVVAGYPEGQQWDIRREALTPDELASMEALPFPSLDPIDGKHGPLVEHWLHAA | not soluble |
| MGSDKIHHHHHHMFDPTLLHIINAHSRNPHYHKKFPIILFWSQKSGCTSLAKWFFYQIDLLQTALNYSPFIHNYEYDIYKNAPAYSLRLGIALREKQKETFKLVRNPYKRAVSSFVSLIAPPYIENPEWKPIRKFLYQDENSSKGLSFKQFLYYLLINGAQANSINPHFTQQYIADEEKYVTNYIYLENFNQDMKALEKRFELKTAPINEFSTSWHHQTPSMIYKGNFSESDITDPLFPRLPTFESFYDTECIQLVQTIFQNDFNTYKYSKEYPY | not soluble |
| MGSDKIHHHHHHMFKSTDNYIASNELTLAVNAAIALEKPLLIKGEPGTGKTQLAEELARSLNCKLYQWHIKSTTKAQQGLYEYDAVSRLRDSQLGDARVHDIGNYIVKGKLWQAFEEDQRSILLIDEIDKADIEFPNDLLQELDKMEFYVYETQQVIKAKQRPIIIITSNNEKELPDAFLRRCFFHYIKFPTKDEMAKIIDVHHPNVKQDLLQQALEVFFDLRDVNGIKKKPSTSELIDWLKLLISDDISQDTLLDKKSDIIPLFGALLKNEQDVSLIEKLAFMSRRNR | not soluble |
| MGSDKIHHHHHHMFLGEDYLLTNRAAVRLFNEVKDLPIVDPHNHLDAKDIVENKPWNDIWEVEGATDHYVWELMRRCGVSEEYITGSRSNKEKWLALAKVFPRFVGNPTYEWIHLDLWRRFNIKKVISEETAEEIWEETKKKLPEMTPQKLLRDMKVEILCTTDDPVSTLEHHRKAKEAVEGVTILPTWRPDRAMNVDKEGWREYVEKMGERYGEDTSTLDGFLNALWKSHEHFKEHGCVASDHALLEPSVYYVDENRARAVHEKAFSGEKLTQDEINDYKAFMMVQFGKMNQETNWVTQLHIGALRDYRDSLFKTLGPDSGGDISTNFLRIAEGLRYFLNEFDGKLKIVLYVLDPTHLPTISTIARAFPNVYVGAPWWFNDSPFGMEMHLKYLASVDLLYNLAGMVTDSRKLLSFGSRTEMFRRVLSNVVGEMVEKGQIPIKEARELVKHVSYDGPKALFFG | soluble |
| MGSDKIHHHHHHMFNLEEYTEKAQKVMMSIQDIMTRYRQNQLSSEHILLAILEEGNNVGVELLKELNVDINRLKDEVEVFIGKYGVRVPEGASVSQIFITPDARHVIEKAREEARRMGDSKIGTEHLILGMVLSPDSTAFRILSRYGVTPERVYEAIRKIRSTGKTDEAENVEALARFTVDLTQLAREKKLMPVVDREKEIRRVIQILSRRTKNNPVLIGDPGVGKTAVVEGLAQRIVEGKVPLFLRNVRVLKLDMGRLVAGTRFRGDFEERLKRLLDELKRKKGEVILFIDEVHTVVGAGAAEGALDAANIMKPELTTGEIQIIGATTVEEYRKYIEKDRALERRFQPVMVEEPTVEQTIEILKGLRKVFEEHHHVKITDDALEAAAKLSARYITNRFLPDKAVDLIDEAAAYVRLESSYPSEELLKLEEEIKNLEDKINDAVVKGEYEEAAKLKVELQKLKNEYEEKRKKQEKVEPVVDENVVAKIVEQWTGIPVSRIMESEREKLLKLEEFIHQRLVNQEEAVKIVARTIRRARVGIKNPRRPIGVFLFLGPTGVGKTELARTLADVLFGSEDAMIRLDMSEYMEKHSVARLIGAPPGYVGYEEGGQLTEAVRKRPYSVILLDEIEKAHPDVFNILLQVFEDGRLTDGKGNTVDFRNTIIIMTSNIGSEKILEMSENGVRIEIEKELRNTFKPEFLNRIDAIVYFKPLTMEEVKKIVEIMVRQLQEILKEKNISIELTERAKEYLAEAGYVPSLGARPLRRIIELELESMIADKILEGEIKEGDRVLVDADEYGLKIERR | not soluble |
| MGSDKIHHHHHHMFSKSLEALHHAKRYRKRELFDPLLKDYASNDYLGLSVKKDLLQNAFNKLQSFVSHSPKASMLVNGYHPLHAELEERLANLLGFESALLVGSGFLGNLALIDTLLVKNALLFMDAHYHASGIFSTKIKPNQVIFFSHNDIKDLKQKLFNAPKNKIKFIAIEGVYSMDASVAPYDFYAIIQEIPNAFLIVDEAHSFGTIGENLLGFLEYYRIKEKDKIIKLSTFSKALASYGACILAPLQTIEFLTNRAKSVIYTTALSLLDTALTLAHLEYFIVQKQELKNELSKHQQIIFETLGIRTLAGFFTLEFESNPALLNAHHFLKEKGFLVGAIRPPTVSKPLLRVSLSLKNSLEDTKELANTLLNYSKIQSSFKSG | not soluble |
| MGSDKIHHHHHHMFTKKSRNIYKAGSLCEFAKAFFIGGIDVENVVKHALLKEVEQLMEQYIGGLKEIFLDEKIVGVYIYGSIALGAFHAETSDVDFVTVISDPVNEAEKQQLVELHKKLSGSTLGKRMDGMYIPLADLGKYNDEMNEYVYCADGKANIGHWDINAVTWWTLKNQGITVIGKEAEDLSFQIRWDDVVNTMKYNVEQYWSGKAKQPYLFFIEEWVESAVVTMGRILYTLDHKTIVSKDRGLQYLLEHSSEEWGPLLKEVERIRQNPKEKRMLSRWRRADMTKRFLLHLIETCRGKWTIQ | not soluble |
| MGSDKIHHHHHHMFTMICPVCEKSVNDMQGLALHFRSGSIHGDGKHASWISAEQIEHGISDSDLSDVLIRIFRPEESLIRWARMEFIAKFYAHPHPFMEAMQKPTVPVLLGYVIEHRFFLKNWIRTLSMVIHSTTSDDAFEYEVENVATEYIGLNGKPSHLELLLRMGEALGMSRKRIMEYSPLPETSQAIEVWYGISNRYSWIDTMGAMHVLELVADRTLVDDGSPIHYFNPEILKGSDYPEAVKNFLMEGYEADVGHAGEALKIVQAATMDDLTTRSIMLRSMDAFYVYLNARMRRARMLEASWGE | not soluble |
